Assay results from publication PMC5715906 (The Journal of General Physiology, 2017).

Biological target: the molecule itself
Assay: crystal structure

B1: GLIC E−2′I + I9′A double mutant (receptor)
chain: QDMVSPPPPIADEPLTVNTGIYLIECYSLDDKAETFKVNAFLSLSWKDRRLAFDPVRSGVRVKTYEPEAIWIPEIRFVNVENARDADVVDISVSPDGTVQYLERFSARVLSPLDFRRYPFDSQTLHIYLIVRSVDTRNIVLAVDLEKVGKNDDVFLTGWDIESFTAVVKPANFALEDRLESKLDYQLRISRQYFSYIPNIILPMLFILFISWTAFWSTSYIANVTLVVSTLAAHIAFNILVETNLPKTPYMTYTGAIIFMIYLFYFVAVIEVTVQHYLKVESQPARAASITRASRIAFPVVFLLANIILAFLFFGF
  stoichiometry N: 5
